Consider 2 molecules from patent US20020150558A1 (CENTRE NATIONAL DE LA RECHERCHE SCIENTIFIQUE CNRS, published 2002).

Test [1] deals with class I HLA molecules (MHC-I) at the cell surface (human). Description: cell-based or functional assay.
A further test concerns the target T1, Ad5Luc3 (adenovirus serotype 5 (Ad5), UniProt P11818 1-581).
T1 sequence: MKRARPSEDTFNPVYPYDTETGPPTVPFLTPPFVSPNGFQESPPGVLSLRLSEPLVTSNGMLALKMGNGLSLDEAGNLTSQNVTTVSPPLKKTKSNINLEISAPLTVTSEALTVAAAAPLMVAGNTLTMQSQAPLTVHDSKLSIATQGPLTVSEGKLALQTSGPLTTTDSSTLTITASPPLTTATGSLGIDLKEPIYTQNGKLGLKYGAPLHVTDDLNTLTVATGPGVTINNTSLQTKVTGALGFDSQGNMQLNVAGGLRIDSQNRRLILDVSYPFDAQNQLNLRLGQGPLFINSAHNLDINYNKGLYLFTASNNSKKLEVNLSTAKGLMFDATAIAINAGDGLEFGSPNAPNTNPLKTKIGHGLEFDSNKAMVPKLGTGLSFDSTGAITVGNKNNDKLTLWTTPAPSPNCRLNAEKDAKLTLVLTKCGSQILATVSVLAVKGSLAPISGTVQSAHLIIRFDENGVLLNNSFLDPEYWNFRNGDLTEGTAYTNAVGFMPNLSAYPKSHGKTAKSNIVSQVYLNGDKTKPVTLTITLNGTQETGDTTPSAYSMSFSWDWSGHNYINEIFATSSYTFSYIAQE
Description: cell-based or functional assay.

Ad5Luc3 (from UniProt P11818 1-581) had a luciferase activity 18 h post-infection, attachment at 0 C; Daudi HLA- cells against Daudi-HLA+ cells (orders of magnitude) in test [1] of 3 to 4.

B1: synthetic peptide MH20 (peptide)
peptide: RAIVGFRVQWLRRYFVNGSR
Turning to B1, the “fold decrease in luciferase activity (RLU) in HeLa cells; Ad5Luc3 preincubated with peptide, attachment at 0 C” value with Ad5Luc3 is 100 fold.
